Measurements from patent US20210246451, “APTAMER FOR ADAMTS5 AND USE FOR APTAMER FOR ADAMTS5” (RIBOMIC INC., published 2021).

Columns and labels:
[1] = molecular target: T1, ADAMTS5 (UniProt Q9UNA0 Q9UNA0:262-622); assay: inhibition; 10 nM; conditions: tags: R&D Systems
T1 sequence: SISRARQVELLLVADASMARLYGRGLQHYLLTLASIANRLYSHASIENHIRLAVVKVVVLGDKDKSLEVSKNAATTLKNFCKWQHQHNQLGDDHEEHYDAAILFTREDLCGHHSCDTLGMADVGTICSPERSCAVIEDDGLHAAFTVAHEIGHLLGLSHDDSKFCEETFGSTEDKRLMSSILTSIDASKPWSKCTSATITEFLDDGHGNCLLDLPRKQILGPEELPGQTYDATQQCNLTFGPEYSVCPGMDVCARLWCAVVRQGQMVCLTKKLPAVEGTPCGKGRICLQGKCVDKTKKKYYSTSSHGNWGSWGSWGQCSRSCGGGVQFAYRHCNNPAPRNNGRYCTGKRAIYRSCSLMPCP
Description: (§1) Whether an aptamer having the nucleotide sequence shown in SEQ ID NO: 1 inhibits the enzyme activity of ADAMTS5 was evaluated by the following method. As a substrate of ADAMTS5, the G1-IGD-G2 domain of aggrecan (manufactured by R&D systems) was used. ADAMTS5 specifically cleaves in between the 392nd glutamic acid and the 393rd alanine in the G1-IGD-G2 domain and produces two fragments. These fragments have faster electrophoretic mobility than uncleaved G1-IGD-G2. Thus, the enzyme activity of ADAMTS5 can be measured by quantifying the band intensity of G1-IGD-G2 by SDS-PAGE electrophoresis. The assay was performed in a solution A buffer with a reaction mixture volume of 10 μL. First, a mixture (10 μL) of a nucleic acid and ADAMTS5 was prepared and incubated at 25° C. for 15 min. To a substrate solution (5 μL) diluted with solution A was added a mixture (5 μL) of the nucleic acid and ADAMTS5 to start the enzyme reaction. The final concentration of ADAMTS5 in the reaction solution was 5 nM, and the final substrate concentration was 50 μg/mL. The reaction solution was incubated at 37° C. for 2 hr, 2 μL of solution D was added, and the mixture was heated at 95° C. for 2 min to stop the enzyme reaction of ADAMTS5. Solution D contains 0.25 M tris (pH 6.8), 10% SDS, 50% glycerol, 0.25% bromo phenolblue, and 20% 2-mercaptoethanol. The heat-treated reaction solution was electrophoresed by 7.5% SDS-PAGE and stained with SYPRO Orange (manufactured by Sigma-Aldrich). The staining was performed according to the manual of Sigma-Aldrich and detected using STORM840 manufactured by GE Healthcare. […] The amount of uncleaved substrate in each reaction solution was quantified from the band intensity and the standard curve. […] The inhibition rate of the test substance was calculated using the following equation.
The nucleic acids of SEQ ID NOs: 10-12 were all produced by chemical synthesis. Whether aptamers having the nucleotide sequences shown by these nucleic acids inhibit the enzyme activity of ADAMTS5 was determined by a method similar to that in Example 1.

[2] = molecular target: T1, ADAMTS5; assay: inhibition; 10 nM aptamer; conditions: tags: R&D Systems
Description: as §1
The binding activity and enzyme inhibitory activity of aptamers having nucleotide sequences shown in SEQ ID NOs: 16-25 to ADAMTS5 were measured. The binding activity was evaluated by the surface plasmon resonance method. […]

[3] = molecular target: T1, ADAMTS5; assay: inhibition; 5 nM ADAMTS5, aggrecan G1-IGD-G2 cleavage, 145 mM NaCl, Ca, Mg, 37 C; conditions: tags: R&D Systems; stem-internal loop-stem-loop (MFOLD)
Description: as §1, with “The final concentration of ADAMTS5 in the reaction solution was 5 nM, and the final substrate concentration was 50 μg/mL. The reaction solution was incubated at 37° C. for 2 hr, 2 μL of solution D was added, and the mixture was heated at 95° C. for 2 min to stop the enzyme reaction of ADAMTS5. Solution D contains 0.25 M tris (pH 6.8), 10% SDS, 50% glycerol, 0.25% bromo phenolblue, and 20% 2-mercaptoethanol. The heat-treated reaction solution was electrophoresed by 7.5% SDS-PAGE and stained with SYPRO Orange (manufactured by Sigma-Aldrich).” left out
The concentration of an inhibitor necessary for inhibiting 50% of the enzyme activity (IC₅₀) was determined. […]

[4] = molecular target: T1, ADAMTS5; assay: inhibition; SDS-PAGE aggrecan cleavage, 5 nM enzyme; conditions: tags: R&D Systems
Description: as §1, with “The reaction solution was incubated at 37° C. for 2 hr, 2 μL of solution D was added, and the mixture was heated at 95° C. for 2 min to stop the enzyme reaction of ADAMTS5. Solution D contains 0.25 M tris (pH 6.8), 10% SDS, 50% glycerol, 0.25% bromo phenolblue, and 20% 2-mercaptoethanol. The heat-treated reaction solution was electrophoresed by 7.5% SDS-PAGE and stained with SYPRO Orange (manufactured by Sigma-Aldrich).” left out, “equation. […]” for “equation.”

[5] = molecular target: T1, ADAMTS5; assay: inhibition; method 2 ELISA; 95.9% at 2 nM; conditions: tags: R&D Systems
Description: (§2) The substrate cleavage efficiency of ADAMTS5 under these reaction conditions was 80-100%. The inhibition rate of the test substance was calculated using the following equation.
(§3) On the other hand, the aptamers having the sequences shown by the sequences of SEQ ID NOs: 11(34)-11(35) and SEQ ID NO: 15 were evaluated by the following method (evaluation method 2). The cleavage reaction of the substrate (aggrecan G1-IGD-G2) by ADAMTS5 was performed in the same manner as in Example 1 except the following points. The differences are that the final concentrations of ADAMTS5 and the substrate were respectively 0.2 nM and 400 nM (48 μg/mL), and that the enzyme reaction time was 30 min. […] The cleaved substrate was quantified by a sandwich ELISA method using two kinds of anti-aggrecan antibodies. […] Using this, the amount of cleaved substrate can be quantified. […] The inhibition rate of the test substance was calculated using the following equation.
(§4) The aptamers having the sequences shown in SEQ ID NOs: 28(l)-28(18) (SEQ ID NO: 28 lineage) and SEQ ID NOs: 29(1)-29(3) (SEQ ID NO: 29 lineage) were all produced by chemical synthesis. Whether these aptamers inhibit the enzyme activity of ADAMTS5 was evaluated by a method similar to that in Example 1 and Example 5. In the Table, “n.d.” means not determined. […] “n.d.” means not determined.

[6] = molecular target: T1, ADAMTS5; assay: inhibition; SDS-PAGE aggrecan cleavage; 81% inhibition in Table 9 method 1; conditions: tags: R&D Systems
Description: As a substrate of ADAMTS5, the G1-IGD-G2 domain of aggrecan (manufactured by R&D systems) was used. ADAMTS5 specifically cleaves in between the 392nd glutamic acid and the 393rd alanine in the G1-IGD-G2 domain and produces two fragments. These fragments have faster electrophoretic mobility than uncleaved G1-IGD-G2. Thus, the enzyme activity of ADAMTS5 can be measured by quantifying the band intensity of G1-IGD-G2 by SDS-PAGE electrophoresis. The assay was performed in a solution A buffer with a reaction mixture volume of 10 μL. First, a mixture (10 μL) of a nucleic acid and ADAMTS5 was prepared and incubated at 25° C. for 15 min. […] The staining was performed according to the manual of Sigma-Aldrich and detected using STORM840 manufactured by GE Healthcare. […] The amount of uncleaved substrate in each reaction solution was quantified from the band intensity and the standard curve. […] The inhibition rate of the test substance was calculated using the following equation.
The aptamer having the sequence shown in SEQ ID NO: 26 was prepared by transcription by T7RNA polymerase, and the aptamers having the sequences shown in SEQ ID NOs: 27-29 were prepared by chemical synthesis. Whether these aptamers inhibit the enzyme activity of ADAMTS5 was evaluated by a method similar to that in Example 1. In the Table, “n.d.” means not determined.

[7] = molecular target: T1, ADAMTS5; assay: inhibition; method 2 ELISA; 98.1% at 2 nM; conditions: tags: R&D Systems
Description: as §2, §3, §4

[8] = molecular target: T1, ADAMTS5; assay: inhibition; method 2 ELISA, 0.2 nM enzyme; method 1 77.5%; conditions: tags: R&D Systems
Description: as §2, §3, §4

[9] = molecular target: T1, ADAMTS5; assay: SPR; RU ratio <10%, same level as 40N; 300 mM NaCl, Ca, Mg; conditions: tags: R&D Systems
Description: The binding activity of aptamers having the nucleotide sequences shown in SEQ ID NOs: 1 and 2 to ADAMTS5 was evaluated by the surface plasmon resonance method. Biacore T100 manufactured by GE Healthcare was used for the measurement. The SA chip was used as the sensor chip, which had streptavidin immobilized thereon. About 800 RU of a 16-nucleotide Poly dT with biotin at the 5′-terminal was bound on the chip. […] ADAMTS5 for analyte was prepared at 0.1 μM, and injected at a flow rate so of 30 μL/min for 60 sec. As the running buffer, solution C was used. The solution C is a mixed solution of 300 mM sodium chloride, 5.4 mM potassium chloride, 1.8 mM calcium chloride, 0.8 mM magnesium chloride, 20 mM tris (pH 7.6), and 0.05% Tween20.
SEQ ID NO: 2 has a sequence with one base deletion from the continuous 4 G bases in the consensus sequence, and it was shown from the measurement results of the binding activity that the continuous 4 G bases in the consensus sequence are important for the activity of aptamers. Sensorgram showing the binding of an aptamer having the nucleotide sequence shown in SEQ ID NO: 1 to ADAMTS5 is presented in FIG. 2. […]

[10] = molecular target: T1, ADAMTS5; assay: inhibition; 30 nM; conditions: tags: R&D Systems
Description: Whether an aptamer having the nucleotide sequence shown in SEQ ID NO: 1 inhibits the enzyme activity of ADAMTS5 was evaluated by the following method. As a substrate of ADAMTS5, the G1-IGD-G2 domain of aggrecan (manufactured by R&D systems) was used. ADAMTS5 specifically cleaves in between the 392nd glutamic acid and the 393rd alanine in the G1-IGD-G2 domain and produces two fragments. These fragments have faster electrophoretic mobility than uncleaved G1-IGD-G2. Thus, the enzyme activity of ADAMTS5 can be measured by quantifying the band intensity of G1-IGD-G2 by SDS-PAGE electrophoresis. The assay was performed in a solution A buffer with a reaction mixture volume of 10 μL. First, a mixture (10 μL) of a nucleic acid and ADAMTS5 was prepared and incubated at 25° C. for 15 min. To a substrate solution (5 μL) diluted with solution A was added a mixture (5 μL) of the nucleic acid and ADAMTS5 to start the enzyme reaction. The final concentration of ADAMTS5 in the reaction solution was 5 nM, and the final substrate concentration was 50 μg/mL. The reaction solution was incubated at 37° C. for 2 hr, 2 μL of solution D was added, and the mixture was heated at 95° C. for 2 min to stop the enzyme reaction of ADAMTS5. Solution D contains 0.25 M tris (pH 6.8), 10% SDS, 50% glycerol, 0.25% bromo phenolblue, and 20% 2-mercaptoethanol. The heat-treated reaction solution was electrophoresed by 7.5% SDS-PAGE and stained with SYPRO Orange (manufactured by Sigma-Aldrich). The staining was performed according to the manual of Sigma-Aldrich and detected using STORM840 manufactured by GE Healthcare. […] The amount of uncleaved substrate in each reaction solution was quantified from the band intensity and the standard curve. The substrate cleavage efficiency of ADAMTS5 under these reaction conditions was 80-100%. The inhibition rate of the test substance was calculated using the following equation.
The nucleic acids shown in SEQ ID NOs: 3(1)-3(16) were all produced by chemical synthesis. Whether these nucleic acids inhibit the enzyme activity of ADAMTS5 was determined by a method similar to that in Example 1.

AUUGGGGCCUCCACAGCUGCUCAGCUUGGACUAAACCAAU (ssRNA, 2'-OMe at 1-5,15-26,28,34-40; 2'-F other pyrimidines) [SEQ ID NO: 10]
activity [1]: 65 % inhibition

AUUGGGGCCUCCACAGCGCUCGCUUGGACUAAACCAAU (ssRNA, 2'-OMe at 1-5,15-24,26,32-38; 2'-F other pyrimidines) [SEQ ID NO: 11]
activity [1]: 59.8 % inhibition

B1: SEQ ID NO: 22 (ssRNA)
RNA: GGGACAUGCGUAACUGCAUAGGGGCCUCCACAGCUAUUCAGCUUGGACACAAACCAUGCAGUCCAGAUCGAGCA
modifications: 2'-F at all pyrimidines
activity [2]: 14.8 % inhibition

B2: SEQ ID NO: 23 (ssRNA)
RNA: GGGACAUGCGUAACUGUAUAGGGGCCUCCACAGCUGAAAAGCUUGGACUCAAACCAUACAGUCCAGAUCGAGCA
modifications: 2'-F at all pyrimidines
activity [2]: 14.5 % inhibition

B3: SEQ ID NO: 24 (ssRNA)
RNA: GGGACAUGCGUAACUUGAUAGGGGCCUCCACAGCCGGUAGGCUUGGACUCAAACCAUCAAGUCCAGAUCGAGCA
modifications: 2'-F at all pyrimidines
activity [2]: 20.2 % inhibition

B4: SEQ ID NO: 1 (ssRNA)
RNA: GGGUACGACCGUCGUACGAUUGGGGCCUCCACAGCUGCUCAGCUUGGACUAAACCAAUAAGAGACUAACGCCUAGCGUAC
modifications: 2'-F pyrimidines, 2'-OH purines; 3' A16 tail for SPR
IC50 [3]: 16.8 nM

UUGGGGCCUCCACAGCGCUCGCUUGGACUAAACCAA (ssRNA, 2'-OMe at 1-4,14-23,25,31-36; 2'-F other pyrimidines) [SEQ ID NO: 12]
activity [1]: 71.1 % inhibition

UAUAGGGGCCUCCACAGCGUAAGCUUGGACUUAAACCAUA (ssRNA, 2'-OMe at 1-3,5,6,16-19,23-27,34-40; 2'-F other pyrimidines) [SEQ ID NO: 27]
IC50 [4]: 5.9 nM

CGUAGGGGCCUCCACAGCGUAAGCUUGGACUUAAACCACG (ssRNA, as SEQ 28 plus 2'-OMe at 20-22,31; 5' 40 kDa branched PEG; 3' idT) [28(18)]
IC50 [5]: 0.029 nM

CGUAGGGGCCUCCACAGCGUAAGCUUGGACUUAAACCACG (ssRNA, 2'-OMe at 1-3,5,6,16-19,23-27,34-40; 2'-F other pyrimidines) [SEQ ID NO: 28]
IC50 [6]: 3.4 nM

CGUAGGGGCCUCCACAGCGUAAGCUUGGACUUAAACCACG (ssRNA, as SEQ 28 plus 2'-OMe at 20-22,31; 3' idT) [28(15)]
IC50 [7]: 0.084 nM

CGUAGGGGCCUCCACAGCGUAAGCUUGGACUUAAACCACG (ssRNA, as SEQ 28 plus 2'-OMe at U31) [28(3)]
IC50 [8]: 0.108 nM

B5: SEQ ID NO: 2 (ssRNA)
RNA: GGGUACGACCGUCGUACGAUUGGGCCUCCACAGCUGCUCAGCUUGGACUAAACCAAUAAGAGACUAACGCCUAGCGUAC
modifications: 2'-F pyrimidines; 3' A16 tail for SPR
binding result [9]: no binding

GGAUUGGGGCCUCCACAGCUGCUCAGCUUGGACUAAACCAAUCC (ssRNA, 2'-OMe at A36; 2'-F pyrimidines) [3(4)]
activity [10]: 53.1 % inhibition
